Here are results for 167 variants from the RNAGym collection of RNA variant scans (doi:10.1073/pnas.2313332121).

Sequences and labels used below:
B1: TPR t1 (parent)
chain: GACCAAUCUGCCCUCAGAGCUCGAGAACAUCUUCGGAUGCAGAGGAGGCAGGCUUCGGUGGCGCGAUAGCGCCAACGUCCUCAACCUCCAAUGCAUCCCACCACAUGAUGAUGCCUGAAGAGCCUUGGUUUUUUG

The variants in this series derive from B1. Nature of the series: polymerase ribozyme fitness, log enrichment relative to wild type (log ratio); higher = more active; in vitro selection for triplet polymerase activity. In a few lines: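 Mutant libraries for each subunit of a heterodimeric triplet polymerase ribozyme were made by PCR and then transcribed. Each library underwent one round of in vitro selection in triplicate: annealing with a biotinylated primer, the partner subunit and triplets, frozen incubation at −7 °C, gel excision of extended constructs, streptavidin-bead capture and RT-PCR. Input and output libraries were Illumina-sequenced, and only genotypes with ≥10 input reads and ≥1 read per output were kept. Fitness is the logarithm, base 2, of genotype enrichment over wild-type enrichment, computed from inverse-variance-weighted replicate averages.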
For the variant G69U C94U, the “polymerase ribozyme fitness (log ratio)” value amounted to 1.7.
Under G71A A111G stands -0.423; under G71A C86A C114A, -3.9; under G69U A91C C114A C124U U126C, -2.19.
In the case of C70A G93C it was -3.33.
Under C70G C86U G110U G113C stands -6.29.
C70G G135U: the “polymerase ribozyme fitness (log ratio)” value was -3.49.
For G71U C72U A118G, the “polymerase ribozyme fitness (log ratio)” value is -0.476.
On to A68U U112A, for which the “polymerase ribozyme fitness (log ratio)” value is -5.84.
For the variant G69C U87A C123G, the “polymerase ribozyme fitness (log ratio)” value was -0.694.
On to C72A G93C C102G, for which the “polymerase ribozyme fitness (log ratio)” value is -6.8.
With C72A G113U G120A U132A, the “polymerase ribozyme fitness (log ratio)” value was -2.87.
For the variant C70U C102U, the “polymerase ribozyme fitness (log ratio)” value was -2.39.
Under C70G C123A stands -2.21; under G71U C115G, -1.74.
For C72A G117A, the “polymerase ribozyme fitness (log ratio)” value is -1.19.
In the case of C70U U125A it was -1.31.
G69U C86G C94U C124G G135A: the “polymerase ribozyme fitness (log ratio)” value stood at 0.0412.
For the variant G69U U87A, the “polymerase ribozyme fitness (log ratio)” value turned out to be 0.245.
Under G69A U116C stands -3.45; under C70A C101A, -2.43.
Consider G69A U92A, for which the “polymerase ribozyme fitness (log ratio)” value was -6.38.
C70U G107C G122A: the “polymerase ribozyme fitness (log ratio)” value is -5.12.
In the case of G69A C82U U112G it was -4.1; in that of C70U G71A U129G, -1.98.
As to C72A A83U, the “polymerase ribozyme fitness (log ratio)” value was -0.322.
On to G69U C86G U96G C114A, for which the “polymerase ribozyme fitness (log ratio)” value is -2.17.
Regarding G69U C88A G127C U131A, the “polymerase ribozyme fitness (log ratio)” value is -2.72.
Under G71U U131A U133G stands -1.3; under G69C G113U, -4.51; under G71U A91G A121U, 0.367.
Under C70A U112A G113A stands -2.47; under G71C C72A, -6.22; under C70G U126C, -3.27.
C70A U81C C88A G120U: the “polymerase ribozyme fitness (log ratio)” value was -3.19.
In the case of C70U G120C U132C it was 0.806; in that of G69C C73A, -1.18; in that of G71A U109C, -4.59.
Under C70U A83C A108G stands -2.22.
G69A: the “polymerase ribozyme fitness (log ratio)” value was -2.44.
In the case of G69C it was -1.27; in that of G69U, 0.48.
In the case of C70U C80A it was -5.7.
Regarding G71A C97U, the “polymerase ribozyme fitness (log ratio)” value is -1.06.
With G71C U112A, the “polymerase ribozyme fitness (log ratio)” value was 0.348.
Under G69U C80G stands -2.32; under C70A A90G, -1.9; under C70G U78C C82G A91C, -5.79.
On to G69C C80U, for which the “polymerase ribozyme fitness (log ratio)” value was -2.38.
In the case of C70A C99U it was -5.26; in that of G71U C102G U112A G127U, -5.37.
With G69U G120A, the “polymerase ribozyme fitness (log ratio)” value was 1.25.
In the case of G69U G120C it was 1.2.
Under G69U C85A stands -1.08; under G69C C86G, -2.97.
Under G69A U81A C124A stands -1.99; under G69U U78A A91U A111C, -0.0328; under G71U C73A A83U, -2.73.
For C70A C98U, the “polymerase ribozyme fitness (log ratio)” value was -2.73.
For C72A C124G, the “polymerase ribozyme fitness (log ratio)” value was 2.23.
In the case of C72A C124A it was 1.27; in that of G69U A83U, -0.34; in that of G69C U92A, -5.61.
In the case of A68G U81A C99U A111U C124U it was -5.02; in that of C72A G120U, 0.158; in that of G69A G93A G113C, -6.22.
Under C70A C80A U126C stands -5.37; under C72A C80U C114G, -3.31; under G69U A118G, -0.0784.
As to G71C G135U, the “polymerase ribozyme fitness (log ratio)” value is -2.55.
Turning to G71U A95C C101U G127A, the “polymerase ribozyme fitness (log ratio)” value is -3.11.
On to G71U G93U, for which the “polymerase ribozyme fitness (log ratio)” value is -0.956.
As for G71U C101U U130G, the “polymerase ribozyme fitness (log ratio)” value was -0.458.
For G69A G120U U130A, the “polymerase ribozyme fitness (log ratio)” value was -2.09.
Under G71A C124A stands 1.21.
In the case of C70A C89U it was -2.29; in that of G71U C86A, -2.02.
Turning to C70G A83C, the “polymerase ribozyme fitness (log ratio)” value is -2.96.
Under C70G A83G stands -4.15.
As for A68G G113U, the “polymerase ribozyme fitness (log ratio)” value is -4.53.
In the case of G69C A90C A91G A108C U112A it was -6.22; in that of C70G C115G, -3.68; in that of C70G A90C C114U A121G, -4.76.
In the case of G71C U81G it was -5.8; in that of C72A A83U C123G U126A, 0.126.
In the case of G69A C70U, the “polymerase ribozyme fitness (log ratio)” value was -3.12.
For G69U C72U, the “polymerase ribozyme fitness (log ratio)” value is -0.304.
Turning to C70G C79A A111C A119C, the “polymerase ribozyme fitness (log ratio)” value is -8.17.
In the case of G71A U132A it was -0.617; in that of G71A G77U C88U G110A C115A U130A, -4.99; in that of G69U G71U, -0.811.
In the case of C70A C85U G113A it was -3.33; in that of C70A U78A C115U, -4.18; in that of C70U C124G, 0.921.
As for G71A U96A, the “polymerase ribozyme fitness (log ratio)” value is -2.13.
Under G69U C76G U133A stands -2.07; under G71U C99G C115U, -7.86.
In the case of C70G G77A G93A A100U A105G U106A it was -4.21; in that of G69U U92A U130A, -1.5.
Under G69C C97A stands -6.49; under G69A A95C G113A, -3.61.
As for C72A C94U, the “polymerase ribozyme fitness (log ratio)” value is -0.00506.
On to G69A G120C, for which the “polymerase ribozyme fitness (log ratio)” value was -0.596.
Consider G69A G120A, for which the “polymerase ribozyme fitness (log ratio)” value is -1.48.
For the variant G71A A118G, the “polymerase ribozyme fitness (log ratio)” value is -0.577.
In the case of C70U C82G it was -0.344.
Under C70U G135U stands -1.13; under G71C A83U G113U, -4.07; under G69A A91C, -5.04.
On to G69A G77A C86U U112A, for which the “polymerase ribozyme fitness (log ratio)” value was -2.89.
Under G71U G122U stands -0.542; under C72A C82A U87A, -0.837; under G69U G71A A75U A103U C124G, -3.98.
In the case of G71A U106A U133A, the “polymerase ribozyme fitness (log ratio)” value is -1.42.
As to C70A G120A, the “polymerase ribozyme fitness (log ratio)” value is -0.62.
Under C72A C85U C102U A121G U133A stands 0.201; under G71C G120C, 0.219; under C72A G107A, -4.95.
C70G C124U G128C: the “polymerase ribozyme fitness (log ratio)” value was -3.97.
As to G71C C79G, the “polymerase ribozyme fitness (log ratio)” value was -1.96.
Turning to G71U C85A, the “polymerase ribozyme fitness (log ratio)” value is -1.72.
For the variant G69U C102U A121U, the “polymerase ribozyme fitness (log ratio)” value was -3.9.
For the variant G69C C76U, the “polymerase ribozyme fitness (log ratio)” value is -4.07.
Under G71A G128C stands -3.14; under C70A U78C G113A, -2.47.
In the case of C70G C88A it was -4.74; in that of C70G C88U, -2.98; in that of G69U G113C G122C G127A U132A, -4.29.
Turning to G71U C89A, the “polymerase ribozyme fitness (log ratio)” value was -2.47.
Under C70U C82A G113A stands -1.84; under G71U U112C, 1.34; under G71C A90U G122A C123U, -3.12.
Take C70U G128C: the “polymerase ribozyme fitness (log ratio)” value is -2.54.
In the case of G71U U96A it was -1.24; in that of C72A C88G C124A, 1.33; in that of C70G G110A, -4.37.
Turning to G69A C85U, the “polymerase ribozyme fitness (log ratio)” value was -3.69.
As for G69U A91U C99U U109G, the “polymerase ribozyme fitness (log ratio)” value is -3.63.
Regarding C70U U78G A108G A111C, the “polymerase ribozyme fitness (log ratio)” value is -2.26.
As for G69U U132A, the “polymerase ribozyme fitness (log ratio)” value is 0.176.
In the case of A68U U130C it was -5.02.
With G69C A121U, the “polymerase ribozyme fitness (log ratio)” value is 0.369.
In the case of C70U C72U A121G it was 1.38; in that of G69C A95G, -1.13.
Under G69A C85A U106A U125A stands -5.49; under G71U C79G, -2.2; under G71C C97U, -1.45.
Under C70U U112C stands 0.987.
G71C A74U C89U G110C U125A U129A: the “polymerase ribozyme fitness (log ratio)” value was -7.38.
On to G71U C89A U132A, for which the “polymerase ribozyme fitness (log ratio)” value was -2.07.
With G69C U96G U106C, the “polymerase ribozyme fitness (log ratio)” value is -3.19.
In the case of G69A C124U it was -1.25.
In the case of G71A G93A G117A G120C it was -2.99.
In the case of C70U C88A A119G U131A it was 1.21; in that of G69U U78G A91C U92G, -0.788.
Turning to A68G U112G, the “polymerase ribozyme fitness (log ratio)” value was -2.31.
Take C70U C104U: the “polymerase ribozyme fitness (log ratio)” value is -0.703.
In the case of C70U A105C it was -3.43; in that of G71A C123U, 0.153; in that of C72A G110A, -1.01.
As for C70U A90G, the “polymerase ribozyme fitness (log ratio)” value was -0.454.
Regarding G69U G93A A118G G135U, the “polymerase ribozyme fitness (log ratio)” value was -0.918.
C70U U131C: the “polymerase ribozyme fitness (log ratio)” value turned out to be 0.366.
In the case of C70U U131A it was -0.232; in that of C70A C114A A119U, -4.59.
As to C70U C79U G93U, the “polymerase ribozyme fitness (log ratio)” value is -2.15.
For the variant G69C U96A, the “polymerase ribozyme fitness (log ratio)” value is -2.44.
